From US10806798B2, “Compound with effects of thrombolysis, free radical scavenging and thrombus-targeting” (Shanghai Lumosa Therapeutics Co., Ltd., priority 2012, dated 2020) come the findings set out here.

The subject of data set [1] is rats with stroke. The data set is described as follows: Treatment 6 h after the onset of stroke, Ie 5 μmol/kg initially then 2 μmol/kg (Zealonga scores). To be noted: Ie 5 μmol/kg on day 1 (6 h after onset), 2 μmol/kg per day for 5 days. The data set is classed as in vivo, SD rats. Here is the method:
(§1) The efficacy was represented by neural function scores, and a lower score indicates higher efficacy. A 10% chloral hydrate solution was injected intraperitoneally into male SD rats at a dosage of 400 mg/kg body weight for anesthesia. A longitudinal open incision was made at the center of the neck, and the right common carotid artery trunk was dissected (about 3 cm in length). Carotid external artery branches were each dissected and ligated at the hyoid level, and the carotid internal artery was dissected at the swollen part of the neck. The open incision in the carotid internal artery and the proximal end of the common carotid artery were occluded respectively with noninvasive arterial clips, and the distal end of the carotid external artery was ligated. A catheter containing 0.5 mL thrombus suspension in normal saline was inserted in the carotid external artery trunk. At the same time when the clip on the carotid internal artery was released, the 0.5 mL thrombus suspension in normal saline in the catheter slowly flew from the carotid external artery to its proximal end, and then was injected into the arteries in brain through the carotid internal artery. […] The rats were compared to themselves each day, and evaluated for the degree of damage in neural function by the Zealonga method. […]

Data set [2] is described as follows: FT-MS monitoring of metabolic products in brain tissues of rats treated with Ie. The data set is classed as in vivo. The protocol: The entire rat brain was taken out and placed into a 50 mL centrifuge tube, into which 10 mL 0.9% NaCl was added, and homogenized to obtain a uniform suspension which was then centrifuged at 3000 rpm for 10 min. 5 mL supernatant was added into 10 mL methanol and evenly mixed by shaking, and centrifuged at 3000 rpm for 10 min. The supernatant was concentrated under reduced pressure until dry, followed by addition of 1 mL methanol, and again centrifuged at 12000 rpm for 10 min. The resultant supernatant was used for monitoring of the content of metabolic products in brain tissues in rats treated with compound Ie.
(MS conditions: loading: 10 μL; ionization mode: ES+; cone voltage: 30 V; mobile phase flow rate: 0.2 mL/min). According to the above data, the metabolic products M1 and M2 were assumed as the following compounds: […]

In data set [3] the test system is rats with stroke. The data set is described as follows: Treatment 24 h after the onset of stroke, Ie 5 μmol/kg initially then 2 μmol/kg (Zealonga scores). The data set is classed as in vivo, SD rats. Particulars: Ie 5 μmol/kg on day 1 (24 h after onset), 2 μmol/kg per day for 5 days. Here is the method:
as §1, with “score indicates a higher efficacy.” for “score indicates higher efficacy.”, “The open incisions in the” for “The open incision in the”

Data set [4] concerns rats with stroke. Nature of the data set: Treatment 6 h after the onset of stroke induced by aged thrombus, Ie 2 μmol/kg (Zealonga scores). To be noted: 2 μmol/kg Ie per day for 6 days from 6 h after onset. The format is in vivo, SD rats. The protocol: as §1, with “score indicates a higher efficacy.” for “score indicates higher efficacy.”, “The open incisions in the” for “The open incision in the”

Bridge positions count the residues as written; N and C are the ends. Peptide text beside a SMILES is read from it. I, II: the chains in the order shown. * marks the point of attachment. X1 = CC1(C)N([O])C(c2ccc(OCC(=O)*)cc2)=[N+]([O-])C1(C)C

On to `CC(C)[C@H](NC(=O)[C@H](CC(=O)O)NC(=O)CNC(=O)[C@H](CCCNC(=N)N)NC(=O)[C@H](CCCCNC(=O)[C@H](CCCCN)NC(=O)[C@H](C)NC(=O)[C@@H]1CCCN1C(=O)[C@H](CCCNC(=N)N)NC(=O)CN)NC(=O)COc1ccc(C2=[N+]([O-])C(C)(C)C(C)(C)N2[O])cc1)C(=O)O` [Ie, 1,3-dioxo-2-{4′-oxyacetyl-[N^ω-(Gly-Arg-Pro-Ala-Lys)-Lys-Arg-Gly-Asp-Val]phenyl}-4,4,5,5-tetramethylimidazoline] (I: H-GRPAK / II: X1-KRGDV-OH; amide I:C-II:1), for which the “rats dead among the 12 rats that received the treatment” value in data set [1] is given as “two were dead”; in data set [3], “three were dead”; in data set [4] it was “six were dead”. In data set [2] (concluded from metabolic products found in rat brain), the “crossing of the blood-brain barrier” value is recorded as “did indeed cross the blood-brain barrier”. Also, the “metabolic products in brain tissues” value in data set [2] (rats treated with compound Ie, high-resolution FT-MS) was “two metabolic products M1 and M2 in the brain”.
